Assay results reported in US20170137511A1.

Biological target: biotinylated human IL-15 (R&D Systems cat. no. NF150) (human) (UniProt P40933)
Experiment: blocking ELISA: biotinylated human IL-15 (100 pM) binding to plate-bound IL-15Rα-Fc, antibody titrated, streptavidin-peroxidase, absorbance at 450 nm; the filing does not say in words which of the two partners the control antibody binds

biotinylated human IL-15 (R&D Systems cat. no. NF150) (human), sequence (P40933 49-162 limits assumed): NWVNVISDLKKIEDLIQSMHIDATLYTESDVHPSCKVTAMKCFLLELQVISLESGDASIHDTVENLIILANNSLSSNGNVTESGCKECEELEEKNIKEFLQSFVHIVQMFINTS

IC50 (read off the curve): 10 µg/mL
Substance: antibody known to block IL-15 binding to IL-15Rα (R&D Systems cat. no. NF150)
